B1: DCAF4 (parent)
chain: DSHILLCLMGLAETPGCATLLPAS
B2: TCAP (parent)
chain: YQRVLPLPIFTPAKMGATKEERED
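Further: lentivirally expressed fusions sorted by FACS into six bins by GFP to DsRed ratio, PSI derived from sequencing read proportions per bin multiplied by bin number.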

Variants of: B1
Experiment: protein stability index of a GFP-peptide fusion (GPS, HEK-293T) (PSI 1-6); higher = more stable
Conditions: c terminus: a fixed tail appended
Variant DSVILLCLMGLAETPGCATLLPAS [H3V] has a protein stability index of 2.04.
Variant DSCILLCLMGLAETPGCATLLPAS [H3C] has a protein stability index of 1.61.
In the case of DSGILLCLMGLAETPGCATLLPAS [H3G], the protein stability index is reported as 3.24.
With DSNILLCLMGLAETPGCATLLPAS [H3N] the protein stability index was 3.2.
For DSQILLCLMGLAETPGCATLLPAS [H3Q], the protein stability index was 2.02.
DSRILLCLMGLAETPGCATLLPAS [H3R] gave a protein stability index of 3.45.
Work on DSPILLCLMGLAETPGCATLLPAS [H3P] yielded a protein stability index of 2.65.
Variant DSWILLCLMGLAETPGCATLLPAS [H3W] has a protein stability index of 3.17.
In the case of DSIILLCLMGLAETPGCATLLPAS [H3I], the protein stability index is reported as 3.85.
In the case of DSLILLCLMGLAETPGCATLLPAS [H3L], the protein stability index is reported as 3.05.
With DSHILLWLMGLAETPGCATLLPAS [C7W] the protein stability index was 3.65.
For DSHILLPLMGLAETPGCATLLPAS [C7P], the protein stability index was 2.47.
Work on DSHILLYLMGLAETPGCATLLPAS [C7Y] yielded a protein stability index of 3.
Work on DSHILLKLMGLAETPGCATLLPAS [C7K] yielded a protein stability index of 2.14.
DSHILLDLMGLAETPGCATLLPAS [C7D] gave a protein stability index of 1.78.
Variant DSHILLALMGLAETPGCATLLPAS [C7A] has a protein stability index of 2.67.
Variant DSHILLRLMGLAETPGCATLLPAS [C7R] has a protein stability index of 2.1.
Variant DSHILLELMGLAETPGCATLLPAS [C7E] has a protein stability index of 1.7.
In the case of DSHILLHLMGLAETPGCATLLPAS [C7H], the protein stability index is reported as 2.9.
DSHILLQLMGLAETPGCATLLPAS [C7Q] gave a protein stability index of 1.8.
DSHILLNLMGLAETPGCATLLPAS [C7N] showed a protein stability index of 2.08.
With DSHILLVLMGLAETPGCATLLPAS [C7V] the protein stability index was 2.19.
DSHILLILMGLAETPGCATLLPAS [C7I] showed a protein stability index of 2.51.
With DSHILLFLMGLAETPGCATLLPAS [C7F] the protein stability index was 2.76.
DSHILLMLMGLAETPGCATLLPAS [C7M] showed a protein stability index of 2.11.
Variant DSHILLSLMGLAETPGCATLLPAS [C7S] has a protein stability index of 1.55.
With DSHILLGLMGLAETPGCATLLPAS [C7G] the protein stability index was 2.32.
Work on DSHILLCNMGLAETPGCATLLPAS [L8N] yielded a protein stability index of 2.58.
Variant DSHILLCRMGLAETPGCATLLPAS [L8R] has a protein stability index of 2.62.
DSHILLCAMGLAETPGCATLLPAS [L8A] gave a protein stability index of 1.96.
In the case of DSHILLCSMGLAETPGCATLLPAS [L8S], the protein stability index is reported as 1.69.
With DSHILLCYMGLAETPGCATLLPAS [L8Y] the protein stability index was 3.55.
DSHILLCWMGLAETPGCATLLPAS [L8W] gave a protein stability index of 2.07.
For DSHILLCCMGLAETPGCATLLPAS [L8C], the protein stability index was 2.39.
Work on DSHILLCDMGLAETPGCATLLPAS [L8D] yielded a protein stability index of 3.14.
For DSHILLCKMGLAETPGCATLLPAS [L8K], the protein stability index was 2.02.
In the case of DSHILLCGMGLAETPGCATLLPAS [L8G], the protein stability index is reported as 1.93.
With DSHILLCTMGLAETPGCATLLPAS [L8T] the protein stability index was 1.97.
Variant DSHILLCHMGLAETPGCATLLPAS [L8H] has a protein stability index of 1.51.
DSHILLCQMGLAETPGCATLLPAS [L8Q] showed a protein stability index of 1.95.
For DSHILLCMMGLAETPGCATLLPAS [L8M], the protein stability index was 3.25.
Variant DSHILLCEMGLAETPGCATLLPAS [L8E] has a protein stability index of 2.36.
Variant DSHILLCPMGLAETPGCATLLPAS [L8P] has a protein stability index of 2.5.

Variants of: B2
Experiment: as above
Conditions: c terminus: a fixed tail appended
Work on YQRVLPLPIFTPAKMGATKEERVD [E23V] yielded a protein stability index of 2.79.
With YQRVLPLPIFTPAKMGATKEERDD [E23D] the protein stability index was 2.04.
Work on YQRVLPLPIFTPAKMGATKEERID [E23I] yielded a protein stability index of 2.3.
YQRVLPLPIFTPAKMGATKEERMD [E23M] showed a protein stability index of 1.9.
YQRVLPLPIFTPAKMGATKEERHD [E23H] showed a protein stability index of 2.72.
In the case of YQRVLPLPIFTPAKMGATKEERYD [E23Y], the protein stability index is reported as 1.93.
YQRVLPLPIFTPAKMGATKEERGD [E23G] gave a protein stability index of 2.
YQRVLPLPIFTPAKMGATKEERCD [E23C] gave a protein stability index of 2.19.
With YQRVLPLPIFTPAKMGATKEERLD [E23L] the protein stability index was 2.22.
YQRVLPLPIFTPAKMGATKEERQD [E23Q] showed a protein stability index of 1.69.
Variant YQRVLPLPIFTPAKMGATKEERFD [E23F] has a protein stability index of 1.64.
YQRVLPLPIFTPAKMGATKEERTD [E23T] showed a protein stability index of 2.16.
Variant YQRVLPLPIFTPAKMGATKEERWD [E23W] has a protein stability index of 2.53.
Variant YQRVLPLPIFTPAKMGATKEERPD [E23P] has a protein stability index of 1.95.
YQRVLPLPIFTPAKMGATKEERRD [E23R] gave a protein stability index of 1.92.
With YQRVLPLPIFTPAKMGATKEERSD [E23S] the protein stability index was 2.
YQRVLPLPIFTPAKMGATKEERKD [E23K] showed a protein stability index of 1.87.
In the case of YQRVLPLPIFTPAKMGATKEERAD [E23A], the protein stability index is reported as 2.02.
In the case of YQRVLPLPIFTPAKMGATKEERND [E23N], the protein stability index is reported as 1.8.
For YQRVLPLPIFTPAKMGATKEEPED [R22P], the protein stability index was 1.87.
For YQRVLPLPIFTPAKMGATKEETED [R22T], the protein stability index was 1.86.
With YQRVLPLPIFTPAKMGATKEEVED [R22V] the protein stability index was 2.2.
Work on YQRVLPLPIFTPAKMGATKEEMED [R22M] yielded a protein stability index of 1.9.
With YQRVLPLPIFTPAKMGATKEEWED [R22W] the protein stability index was 1.71.
With YQRVLPLPIFTPAKMGATKEEHED [R22H] the protein stability index was 1.95.
With YQRVLPLPIFTPAKMGATKEESED [R22S] the protein stability index was 1.76.
For YQRVLPLPIFTPAKMGATKEEQED [R22Q], the protein stability index was 1.67.
YQRVLPLPIFTPAKMGATKEELED [R22L] showed a protein stability index of 1.79.
YQRVLPLPIFTPAKMGATKEENED [R22N] gave a protein stability index of 2.51.
YQRVLPLPIFTPAKMGATKEEIED [R22I] showed a protein stability index of 1.93.
For YQRVLPLPIFTPAKMGATKEEKED [R22K], the protein stability index was 2.09.
Variant YQRVLPLPIFTPAKMGATKEEYED [R22Y] has a protein stability index of 1.63.
In the case of YQRVLPLPIFTPAKMGATKEEREG [D24G], the protein stability index is reported as 1.84.
With YQRVLPLPIFTPAKMGATKEEREV [D24V] the protein stability index was 1.87.
With YQRVLPLPIFTPAKMGATKEEREW [D24W] the protein stability index was 2.26.
YQRVLPLPIFTPAKMGATKEEREA [D24A] showed a protein stability index of 1.82.
In the case of YQRVLPLPIFTPAKMGATKEEREL [D24L], the protein stability index is reported as 2.04.
Work on YQRVLPLPIFTPAKMGATKEEREM [D24M] yielded a protein stability index of 1.86.
Variant YQRVLPLPIFTPAKMGATKEEREI [D24I] has a protein stability index of 1.99.
In the case of YQRVLPLPIFTPAKMGATKEEREE [D24E], the protein stability index is reported as 2.21.
With YQRVLPLPIFTPAKMGATKEEREN [D24N] the protein stability index was 2.22.
YQRVLPLPIFTPAKMGATKEERET [D24T] showed a protein stability index of 3.05.
YQRVLPLPIFTPAKMGATKEEREH [D24H] gave a protein stability index of 1.81.
YQRVLPLPIFTPAKMGATKEEREK [D24K] showed a protein stability index of 2.17.
With YQRVLPLPIFTPAKMGATKEERES [D24S] the protein stability index was 1.45.
Variant YQRVLPLPIFTPAKMGATKEEREC [D24C] has a protein stability index of 1.98.
YQRVLPLPIFTPAKMGATKEEREQ [D24Q] gave a protein stability index of 2.03.
YQRVLPLPIFTPAKMGATKEEREP [D24P] showed a protein stability index of 1.85.
With YQRVLPLPIFTPAKMGATKEERER [D24R] the protein stability index was 1.55.
Work on YQRVLPLPIFTPAKMGATKEEREF [D24F] yielded a protein stability index of 1.75.
With YQRVLPLPIFTPAKMGATKEEREY [D24Y] the protein stability index was 1.76.
